Columns and labels:
Format in all cases: binding
EDTA-Zn = experiment: Quantitative inhibition ELISA of mAB, competitor EDTA-Zn; conditions: solid phase Y benzyl-DTPA-HSA conjugate
Protocol: (§1) The ELISA comprised a solid phase which was loaded with a solution containing human serum albumin (HSA)-benzyl-DTPA. The supernatant which was to be tested and contained the mAB was preincubated with free complexone or the metal ion complex thereof, and its binding to the specific solid phase was measured. For this purpose, an enzyme amplification system which is coupled to an anti-mouse-immunoglobulin antibody was used. The details of this method are described in Examples 2 and 3.
(§2) The complexones DTPA and EDTA in noncomplexed and in complexed form (Example 4) were used as competitors. Additionally, the structurally related compounds transaconitic acid and 1,2-diaminoethane were used as inhibitors (see Tab. I). The excess amounts of competitor presented in Tab. […] These characteristics make it possible to use the mAB, e.g. coupled on filters or other solid supports, for removing both noncomplexed EDTA or DTPA and EDTA-metal ion or DTPA-metal ion complexes from liquids. Precipitation reactions of mAB-/EDTA-metal ion complexes are likewise suitable for removing the toxic metal ions.
(§3) Divisible 96-well polystyrene microtiter plates (U-shape) type B. supplied by Nunc, No. 4-60445 were employed as support material. The assay was carried out according to the following protocol. […]
(§4) (15) The extinctions are measured at 492 nm in the TITERTEK^R MULTISCAN. […]

EDTA-Pb = experiment: Quantitative inhibition ELISA of mAB, competitor EDTA-Pb; conditions: solid phase Y benzyl-DTPA-HSA conjugate
Protocol: as §1, §2, §3, §4

DTPA-Cu = experiment: Quantitative inhibition ELISA of mAB, competitor DTPA-Cu; conditions: solid phase Y benzyl-DTPA-HSA conjugate
Protocol: as §1, §2, §3, §4

EDTA-Cd = experiment: Quantitative inhibition ELISA of mAB, competitor EDTA-Cd; conditions: solid phase Y benzyl-DTPA-HSA conjugate
Protocol: as §1, §2, §3, §4

DTPA-Cd = experiment: Quantitative inhibition ELISA of mAB, competitor DTPA-Cd; conditions: solid phase Y benzyl-DTPA-HSA conjugate
Protocol: as §1, §2, §3, §4

DTPA-Zn = experiment: Quantitative inhibition ELISA of mAB, competitor DTPA-Zn; conditions: solid phase Y benzyl-DTPA-HSA conjugate
Protocol: as §1, §2, §3, §4

[1] = Quantitative inhibition ELISA of mAB, competitor DTPA; conditions: competitor DTPA (noncomplexed); solid phase Y benzyl-DTPA-HSA conjugate
Protocol: as §1, §2, §3, §4

EDTA-Y = experiment: Quantitative inhibition ELISA of mAB, competitor EDTA-Y; conditions: solid phase Y benzyl-DTPA-HSA conjugate
Protocol: as §1, §2, §3, §4

[2] = Quantitative inhibition ELISA of mAB, competitor transaconitic acid; conditions: competitor trans-aconitic acid; no inhibition up to the stated excess
Protocol: as §1, §2, §3, §4

DTPA-Pb = experiment: Quantitative inhibition ELISA of mAB, competitor DTPA-Pb; conditions: solid phase Y benzyl-DTPA-HSA conjugate
Protocol: as §1, §2, §3, §4

[3] = Quantitative inhibition ELISA of mAB, competitor EDTA
Protocol: as §1, §2, §3, §4

[4] = Quantitative inhibition ELISA of mAB, competitor 1,2-diaminoethane; conditions: no inhibition up to the stated excess
Protocol: as §1, §2, §3, §4

DTPA-Y = experiment: Quantitative inhibition ELISA of mAB, competitor DTPA-Y; conditions: solid phase Y benzyl-DTPA-HSA conjugate
Protocol: as §1, §2, §3, §4

EDTA-Mn = experiment: Quantitative inhibition ELISA of mAB, competitor EDTA-Mn; conditions: solid phase Y benzyl-DTPA-HSA conjugate
Protocol: as §1, §2, §3, §4

EDTA-Cu = experiment: Quantitative inhibition ELISA of mAB, competitor EDTA-Cu; conditions: solid phase Y benzyl-DTPA-HSA conjugate
Protocol: as §1, §2, §3, §4

DTPA-Mn = experiment: Quantitative inhibition ELISA of mAB, competitor DTPA-Mn; conditions: solid phase Y benzyl-DTPA-HSA conjugate
Protocol: as §1, §2, §3, §4

B1: mAB 2050/535: particularly suitable anti-EDTA/DTPA monoclonal antibody; VL and VH sequences in SEQ ID NO:1-4 (antibody, V domains shown)
VH: LQQSGAELVKPGASVKLSCTSGLNIKDTYINWVKQRPEQGLEWIGRIGPANGNTKYDPKFQGKATLTADTSSNTAYLQLSSLTSEDTAVYYCSRRWFFLYWGQGTTVT
VL: QLTQESALTTSPGETVTLTCRSSTGAVTTSNYATWVQEKPDHLFTGLIGGTKNRAPGVPARFSGSLIGDKAALTITGAQTEDEAIYFCALWYSNHWVFGGGTKLKI
Q: Which “Molar excess of competitor, which leads to 50% inhibition of binding to the solid phase antigen” value (EDTA-Zn) does the source give for B1 here?
A: 10^2

Q: And the “Molar excess of competitor, which leads to 50% inhibition of binding to the solid phase antigen” value (EDTA-Pb)?
A: 10^2

Q: And the “Molar excess of competitor, which leads to 50% inhibition of binding to the solid phase antigen” value (DTPA-Cu)?
A: 10^3

Q: What about the “Molar excess of competitor, which leads to 50% inhibition of binding to the solid phase antigen” value (EDTA-Cd) of the same molecule?
A: 10^2

Q: What about the “Molar excess of competitor, which leads to 50% inhibition of binding to the solid phase antigen” value (DTPA-Cd) of the same molecule?
A: 10^2

Q: What about the “Molar excess of competitor, which leads to 50% inhibition of binding to the solid phase antigen” value (DTPA-Zn) of the same molecule?
A: 10^3

Q: And the “Molar excess of competitor, which leads to 50% inhibition of binding to the solid phase antigen” value [1]?
A: 10^2

Q: What about the “Molar excess of competitor, which leads to 50% inhibition of binding to the solid phase antigen” value (EDTA-Y) of the same molecule?
A: 10^2

Q: And the “Molar excess of competitor, which leads to 50% inhibition of binding to the solid phase antigen” value [2]?
A: > 10^5

Q: And the “Molar excess of competitor, which leads to 50% inhibition of binding to the solid phase antigen” value (DTPA-Pb)?
A: 10^3

Q: What about the “Molar excess of competitor, which leads to 50% inhibition of binding to the solid phase antigen” value ([3]; competitor EDTA (noncomplexed), solid phase Y benzyl-DTPA-HSA conjugate) of the same molecule?
A: 10^2

Q: What about the “interaction with EDTA and the complexes thereof” value ([3]; statement in words, EDTA and its metal complexes) of the same molecule?
A: particularly strong

Q: What about the “Molar excess of competitor, which leads to 50% inhibition of binding to the solid phase antigen” value [4] of the same molecule?
A: > 10^5

Q: And the “Molar excess of competitor, which leads to 50% inhibition of binding to the solid phase antigen” value (DTPA-Y)?
A: 10^4

Q: And the “Molar excess of competitor, which leads to 50% inhibition of binding to the solid phase antigen” value (EDTA-Mn)?
A: 10^2

Q: What about the “Molar excess of competitor, which leads to 50% inhibition of binding to the solid phase antigen” value (EDTA-Cu) of the same molecule?
A: 10^2

Q: What about the “Molar excess of competitor, which leads to 50% inhibition of binding to the solid phase antigen” value (DTPA-Mn) of the same molecule?
A: 10^2

From US5908790A, “Methods for removing heavy metals from aqueous solutions and for analysis” (Behring Diagnostics GmbH, priority 1990, dated 1999)
